Results published in patent US20230295310A1 (ABCELLERA BIOLOGICS, published 2023).
Numbering of substitutions follows the chain as printed.

B1: mAb 130 (antibody, V domains shown)
VH: EVQLVESGGGLVKTGGSLRLSCVASGFSFKKAWMNWVRQAPGKGLEWVGRIKRNSDGGATDYAAPVKDRFTLSRDDSKNTLYLQMNSLKTEDTAVYYCTTLDSSSWYVGYYYMDVWGKGTTVTVSS
VL: DIHMTQSPSSVSASLGDRVTFTCRASQDINNWLAWYQQRPGKAPKLLIYTASSLQSGVPSRFSGSGSGTDFTLTISSLQPEDFATYYCQQAHSLPITFGQGTRLGIK
notes: VH and VL only
B2: mAb 120 (antibody, V domains shown)
VH: B1 VH with S55T, A59T, T60A, D68G, N79K, Y82F, W106Y
VL: B1 VL with H3Q, L15V, F21I, R39K, S76G, G105E
notes: VH and VL only
B3: mAb 169 (antibody, V domains shown)
VH: B1 VH with S55T, A59T, T60A, D68G, N79K, Y82F, W106Y
VL: B1 VL with H3Q, L15V, T20I, F21I, R39K, T72I, S76G, G105E
notes: VH and VL only
B4: mAb 157 (antibody, V domains shown)
VH: B1 VH with N54T, S55A, D68G
VL: B1 VL with S7A, L15V, R39K
notes: VH and VL only
B5: mAb 113 (antibody, V domains shown)
VH: B1 VH with S55T, A59T, D68G
VL: B1 VL with H3Q, L15V, F21I, R39K, L46I, G105E
notes: VH and VL only
B6: mAb 166 (antibody, V domains shown)
VH: B1 VH with K43R, S55T, A59T, D68G, T80M, W106L
VL: B1 VL with H3Q, L15V, F21I, R39K, Y87F, G105E, K107T
notes: VH and VL only
B7: mAb 155 (antibody, V domains shown)
VH: B1 VH with S55T, A59T, T60A, D68G, N79K, Y82F, W106Y
VL: B1 VL with H3Q, L15V, T20I, F21I, R39K, S76G, T97S, G105D
notes: VH and VL only
B8: mAb 165 (antibody, V domains shown)
VH: B1 VH with S55T, A59T, T60A, D68G, N79R, W106R
VL: B1 VL with H3Q, L15V, T20I, F21I, R39K, A43V, S76G, G105E
notes: VH and VL only
B9: mAb 116 (antibody, V domains shown)
VH: B1 VH with A59T, D68G
VL: B1 VL with H3Q, S9F, L15V, F21I, R39K, L46I, G105E
notes: VH and VL only
B10: mAb 117 (antibody, V domains shown)
VH: B1 VH with S55T, A59T, D68G, W106L
VL: B1 VL with H3Q, L15V, F21I, R39K, G105E
notes: VH and VL only
B11: mAb 125 (antibody, V domains shown)
VH: B1 VH with S55T, A59T, T60A, D68G, N79K, W106R
VL: B1 VL with H3Q, L15V, T20I, F21I, R39K, A43V, S76G, S77T, G105D
notes: VH and VL only
B12: mAb 156 (antibody, V domains shown)
VH: B1 VH with S55T, A59T, T60A, D68G, N79K, Y82F, W106Y
VL: B1 VL with H3Q, L15V, T20I, F21I, R39K, P40A, S76G, G105E
notes: VH and VL only
B13: mAb 163 (antibody, V domains shown)
VH: B1 VH with A40V, S55T, A59T, T60A, D68G, N79K, Y82F, W106Y
VL: B1 VL with H3Q, L15V, T20I, F21I, R39K, S76G, G105E
notes: VH and VL only
B14: mAb 115 (antibody, V domains shown)
VH: B1 VH with L18H, A59T, D68G, T71I
VL: B1 VL with H3Q, L15V, F21I, R39K, L46I, S53N, Y87F, S93G, G105E
notes: VH and VL only
B15: mAb 133 (antibody, V domains shown)
VH: B1 VH with N35S, S55T, A59T, T60A, D68G, N79K, Y82F, T93S, T99V, W106Y
VL: B1 VL with H3Q, L15V, T20S, F21I, R39K, S76G, G105E
notes: VH and VL only
B16: mAb 112 (antibody, V domains shown)
VH: B1 VH with L18H, A59T, D68G, T71I
VL: B1 VL with H3Q, L15V, F21I, R39K, L46I, S53N, Y87F, G105E
notes: VH and VL only
B17: mAb 131 (antibody, V domains shown)
VH: B1 VH with L20I, S55T, A59T, T60I, D68G, T71S, Y82F, Y97F, W106Y
VL: B1 VL with L15V, F21I, R39K, Y87F
notes: VH and VL only
B18: mAb 122 (antibody, V domains shown)
VH: B1 VH with S55T, A59T, T60A, D68G, N79K, W106R
VL: B1 VL with H3Q, L15V, T20I, F21I, R39K, A43V, S76G, G105E
notes: VH and VL only
B19: mAb 114 (antibody, V domains shown)
VH: B1 VH with S55T, A59P, T60A, D68G, N79K
VL: B1 VL with H3Q, L15V, T20I, F21I, Q37L, T50A, S76G, G105E, K107Q
notes: VH and VL only
B20: mAb 164 (antibody, V domains shown)
VH: B1 VH with S55T, A59T, T60A, D68G, N79K, Y82F, W106Y
VL: B1 VL with H3Q, L15V, F21I, N30K, R39K, S76G, G105E
notes: VH and VL only
B21: mAb 52 (antibody, V domains shown)
VH: QVQLVQSGAEVKKPGASVKVSCKASGYTFTSHDINWVRQATGQGLEWMGWLNPNSGKTGYAQKFQGRVTMARDTSMYTADMELSSLRFEDTAVYYCARVGHYDMWPGFFSFDYWGQGTLVTVSS
VL: DIQMTQSPSSLSASVGDRIIITCRASQDIRNDLGWYQQKPGKAPKRLIYAASSLQSGVPSRFSGSRSGTEFTLTISSLHPEDFATYYCLQHRSYPYTFGQGTNLEIK
notes: VH and VL only
B22: mAb 188 (antibody, V domains shown)
VH: QVQLVESGGGVVQPGRSLRLSCAASGFTFSGYGMHWVRQAPGKGLEWVAIIYYNGKKEYYADSVKGRFTISRDNSKNTLYLQMNSLRAEDTAVYYCTRGEGYNWFDPWGQGTLVTVSS
VL: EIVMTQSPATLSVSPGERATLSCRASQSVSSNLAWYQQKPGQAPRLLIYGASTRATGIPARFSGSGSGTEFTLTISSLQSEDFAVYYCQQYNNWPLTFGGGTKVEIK
notes: VH and VL only
B23: mAb 192 (antibody, V domains shown)
VH: B22 VH with T112I
VL: EIVMTQSPATLSVSPGERATLSCRASQSVSSNLAWYQQKPGQAPRLLIYGASTRATGIPARFSGSGSGTEFTLTISSLQSEDFAVYYCKQYKNWPLTFGGGTKVEIK
notes: VH and VL only
B24: mAb 197 (antibody, V domains shown)
VH: B22 VH with R16G, Y52W, K56R, E58T, D62E, Y80S, A88V, R98T, E100Q
VL: B23 VL with K89Q, Y91F, K92N, N93A, V104M
notes: VH and VL only
B25: mAb 189 (antibody, V domains shown)
VH: B22 VH with N54D, K57N, E58K, N77S, R87G, E89D, E100K
VL: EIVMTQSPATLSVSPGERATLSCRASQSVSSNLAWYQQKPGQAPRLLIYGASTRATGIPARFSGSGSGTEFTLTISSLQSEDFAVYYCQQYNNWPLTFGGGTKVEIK
notes: VH and VL only
B26: mAb 191 (antibody, V domains shown)
VH: B22 VH
VL: B23 VL with E70D, D82H, K89Q, K92T
notes: VH and VL only
B27: mAb 141 (antibody, V domains shown)
VH: QVQLVQSGAEVKKPGASVKVSCKASGYTFTSYYIHWVRQAPGQGLDWMGIINPSGGITGYAQKLQGRVTMTRDTSTTTVYMELSSLRSDDTAVYYCARGVRGNYYYYYMDVWGKGTTVTVSS
VL: EIVLTQSPDFQSVTPKEKVTITCRASQSIGSKLHWYQQKPDQSPKLLIKYASQSFSGVPSRFSGSGSGTDFNLTINSLEAEDAATFYCHQSSGLPYTFGQGTKLEIK
notes: VH and VL only
B28: mAb 145 (antibody, V domains shown)
VH: B27 VH with S31N, L64F
VL: B27 VL with Y50F, A80P
notes: VH and VL only
B29: mAb 137 (antibody, V domains shown)
VH: QVQLVESGGGVVQPGRSLRLSCAASGFTFSTYGMHWVRQAPGKGLEWVAVIWYDGSHKYYADSVKGRFTISRDNSKKTLYLQMNSLRAEDTGIYYCARTGISGNMSYFYFDHWGQGILVTVSS
VL: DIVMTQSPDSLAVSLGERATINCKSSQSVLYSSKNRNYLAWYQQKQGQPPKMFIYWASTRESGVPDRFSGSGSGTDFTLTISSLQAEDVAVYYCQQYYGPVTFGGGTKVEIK
notes: VH and VL only
B30: mAb 46 (antibody, V domains shown)
VH: EGQLVESGGGLVQPGGSLRLSCVASGFTLSSYTLNWVRQAPGKGLEWVSYISSTSRTIYYSDSVKGRFTISRDNAKNSLYLQMNSLRDEDTALYYCAREDYYDSSGFDYWGQGTLVTVSS
VL: AIRMTQSPSSFSASTGDRVTITCRASQGISSYLAWYQQKPGKAPKLLIYTASTLQSGVPSRFSGSGSGTDFTLTIRSLQSEDFATYYCQQYYSYPRTFGQGTKVEIK
notes: VH and VL only
B31: mAb 51 (antibody, V domains shown)
VH: B30 VH with G2V, V23A, L34M, T54S, T69S, Y109N
VL: B30 VL
notes: VH and VL only
B32: mAb 74 (antibody, V domains shown)
VH: EVQLVESGGGLVQPGRSLRLSCAASGFTFADYVMHWVRQAPGKGLEWVSGINWNNARIGYVGSVKGRFTISRDNAKNSLYLQMTSLRVEDTALYHCVREGNFDFWSAYYRGFLDLWGRGTLVTVSS
VL: B21 VL with I19V, I20T, D28G, N31S, A50G, S56G, R66G, H79Q, R92N, N103K
notes: VH and VL only
B33: mAb 73 (antibody, V domains shown)
VH: EVELVESGGGLVQPGRSLRLSCAASGFTFDDKVMHWVRQAPGKGLEWVSCINWNSGHIGYADSVKGRFTISRDNARTSLYLQMNSLRPEDTALYYCVREGNYDFWSGYYRGFFDLWGRGTLVTVSS
VL: B21 VL with I19V, I20T, D28G, S56G, R66G, H79Q, R92T, Y96F, N103K
notes: VH and VL only
B34: mAb 320 (antibody, V domains shown)
VH: QVQLVESGGGVVQPGRSLRLSCAASGFTFRSYGMHWVRQAPGKGLEWVAIIWYDGSKKYYADSVKGRFTISRDNSKNILYLQMNSLRAEDTAVYYCARQEFNWNDGGYYYMDVWGKGTTVTVSS
VL: DIQLTQSPSFLSASVGDRVTITCRASQGISSYLDWCQQKPGKAPKLLIYAASTLQSGVPSRFSGSGSGTEFTLTISSLQPEDFATYYCQQLDNYPPTFGGGTKVEIK
notes: VH and VL only

biological target: T1, human CD3e/d (human, UniProt P07766 23-126; P04234 22-105); assay: SPR (Carterra LSA), mAb on chip
T1 construct: Bought soluble protein; also called hCD3e/d; human CD3/ed (Sino CT038-H2508H)
T1 sequence (P07766 23-126, chain 1 of 2): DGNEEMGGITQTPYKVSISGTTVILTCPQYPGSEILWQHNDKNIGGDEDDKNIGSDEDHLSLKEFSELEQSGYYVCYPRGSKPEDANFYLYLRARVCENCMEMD
T1 sequence (P04234 22-105, chain 2 of 2): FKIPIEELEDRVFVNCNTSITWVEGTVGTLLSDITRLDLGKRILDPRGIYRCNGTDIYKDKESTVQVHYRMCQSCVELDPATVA
How it was run: (§1)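 Purified mAbs amine-coupled (EDC/S-NHS) at 10 μg/mL in 10 mM NaOAc pH 4.25 onto an HC-30M chip, with benchmark and negative-control mAbs; analyte flowed over the array. Double-referenced sensorgrams fitted globally to a 1:1 Langmuir model for ka, kd and KD.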

Binder	Kd
B1	21.7 nM
B2	44.4 nM
B3	73.8 nM
B4	53.1 nM
B5	107 nM
B6	47.3 nM
B7	46.2 nM
B8	40.4 nM
B9	104 nM
B10	40.6 nM
B11	36 nM
B12	47.7 nM
B13	42 nM
B14	63.8 nM
B15	27.2 nM
B16	56.9 nM

Binder	Kd
B17	32.1 nM
B18	34.2 nM
B19	65.8 nM
B20	77 nM
B21	17.1 nM
B22	36 nM
B23	9.2 nM
B24	49 nM
B25	110 nM
B26	28 nM
B27	92.1 nM
B28	61 nM
B29	181 nM
B30	240 nM
B31	351 nM

biological target: T2, human CD3e/g (human, UniProt P07766 23-126; P09693 23-116); assay: SPR (Carterra LSA), mAb on chip
T2 construct: Bought soluble protein; also called hCD3e/g; human CD3e/g (Acro CDD-C52W4)
T2 sequence (P07766 23-126, chain 1 of 2): as the sequence (P07766 23-126, chain 1 of 2) above
T2 sequence (P09693 23-116, chain 2 of 2): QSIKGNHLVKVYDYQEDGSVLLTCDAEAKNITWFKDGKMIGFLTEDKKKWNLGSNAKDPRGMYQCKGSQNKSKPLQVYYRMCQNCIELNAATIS
How it was run: as §1

Binder	Kd
B1	6.07 nM
B2	12.1 nM
B3	12.6 nM
B4	12.2 nM
B5	28.8 nM
B6	12.5 nM
B7	7.07 nM
B8	10.6 nM
B9	24.1 nM
B10	9.84 nM
B11	13.8 nM
B12	7 nM
B13	8.63 nM
B14	15.7 nM
B15	6.64 nM
B16	14.8 nM
B17	7.45 nM

Binder	Kd
B18	13 nM
B19	18.9 nM
B20	15 nM
B21	112 nM
B32	9.83 nM
B33	16.2 nM
B22	17 nM
B23	9.3 nM
B24	17 nM
B25	60 nM
B26	15 nM
B27	26 nM
B28	13.1 nM
B29	950 nM
B30	98.4 nM
B31	171 nM
B34	0.69 nM
